The source of these data is PMC8352866.

Assay [1] concerns the target Synechocystis sp. PCC 6803 SbtA (Synechocystis sp. PCC 6803). As to the kind of experiment: cryo-EM structure; free SbtA, purified; 3.50 Å resolution.
Assay [2] shares this target. As to the kind of experiment: cryo-EM structure; SbtA-SbtB complex purified in the presence of AMP; 3.15 Å resolution.
Assay [3] concerns the target PII-like signaling protein SbtB. The assay is described as above.

By stoichiometry N is commonly meant the number of molecules, sites or subunits per partner or assembly. With “Synechocystis sp. PCC 6803 SbtA (natural protein)”, the stoichiometry N in assay [1] and in assay [2] was 3 throughout.

On to “PII-like signaling protein SbtB (natural protein)”, for which, in assay [3], the stoichiometry N amounted to 3.
